# Literature values as cited in paper PMC10522771.
# Key:
# [1] = molecular target: CBP TAZ1 (Homo sapiens) (UniProt Q92793)
# [2] = molecular target: CBP TAZ2 (Homo sapiens) (UniProt Q92793)
# CBP TAZ2 (Homo sapiens), sequence (Q92793 1764-1855): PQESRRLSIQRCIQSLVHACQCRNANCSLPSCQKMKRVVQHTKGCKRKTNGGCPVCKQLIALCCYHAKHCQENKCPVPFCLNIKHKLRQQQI
# MITF N-terminal TAD, sequence (O75030 224-295): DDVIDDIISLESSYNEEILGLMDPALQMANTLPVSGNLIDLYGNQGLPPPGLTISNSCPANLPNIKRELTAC
# CBP TAZ1 (Homo sapiens), sequence (Q92793 340-439): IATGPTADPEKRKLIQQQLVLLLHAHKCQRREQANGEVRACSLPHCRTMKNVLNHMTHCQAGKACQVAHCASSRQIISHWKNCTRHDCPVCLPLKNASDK
substance,measurement,setting,value
MITF N-terminal TAD (from UniProt O75030),Kd,[1],6.7 µM
same,Kd,[2],1.2 µM
